This note sets out measurements from article PMC13276077.

In data set [1] the target is MeCP2 full-length, e2 isoform;histone octamer (Homo sapiens;, UniProt P51608;P0C0S8;P62807;P68431;P62805 1-486;2-130;2-126;2-136;2-103, |H2B T115C;H3.1 C96S;C110A). Description: EMSA; 20 mM HEPES pH 7.5, 75 mM NaCl, 125 mM KCl, 50 uM EDTA, 2.5 mM beta-mercaptoethanol, 5% glycerol, BSA, 1.58 uM 47 bp competitor DNA (nucleosome assays); absent w. For orientation: A gel shift assay detects complexes by their altered migration in electrophoresis.

The target in data set [2] is MeCP2 R133G;histone octamer (Homo sapiens;, UniProt P51608;P0C0S8;P62807;P68431;P62805 1-486;2-130;2-126;2-136;2-103, R133G|H2B T115C;H3.1 C96S;C110A). Described as above.
Data set [3] deals with MeCP2 MBD;histone octamer (Homo sapiens;, UniProt P51608;P0C0S8;P62807;P68431;P62805 77-167;2-130;2-126;2-136;2-103, |H2B T115C;H3.1 C96S;C110A). The data set is described as above.
Data set [4] has as its target MeCP2 AT-DIRmut;histone octamer (Homo sapiens;, UniProt P51608;P0C0S8;P62807;P68431;P62805 1-486;2-130;2-126;2-136;2-103, R188G;R190G;K254N;K256N;R268Q|H2B T115C;H3.1 C96S;C110A). The data set is described as above.
The target of data set [5] is MeCP2 full-length, e2 isoform;histone H1.0;histone octamer (Homo sapiens;Homo sapiens;, UniProt P51608;P07305;P0C0S8;P62807;P68431;P62805 1-486;1-194;2-130;2-126;2-136;2-103, ||H2B T115C;H3.1 C96S;C110A). Description: EMSA; histone H1.0 pre-bound (chromatosome); 20 mM HEPES pH 7.5, 75 mM NaCl, 125 mM KCl, 50 uM EDTA, 2.5 mM beta-mercaptoethanol, 5% glycerol, BSA, 1.58 uM 47 bp competitor DNA (nucleosome assays); absent w.

In data set [6] the target is MeCP2 full-length, e2 isoform (Homo sapiens, UniProt P51608 1-486). The data set can be described thus: EMSA; 20 mM HEPES pH 7.5, 75 mM NaCl, 125 mM KCl, 50 uM EDTA, 2.5 mM beta-mercaptoethanol, 5% glycerol, BSA, 1.58 uM 47 bp competitor DNA (nucleosome assays; absent with free DNA), room temperature 30 min. To be noted: protein: recombinant, tags: none.
For data set [7], the target named is HisMBP-MeCP2 162-309;histone octamer (Homo sapiens;, UniProt P51608;P0C0S8;P62807;P68431;P62805 162-309;2-130;2-126;2-136;2-103, |H2B T115C;H3.1 C96S;C110A). The data set can be described thus: EMSA; 20 mM HEPES pH 7.5, 75 mM NaCl, 125 mM KCl, 50 uM EDTA, 2.5 mM beta-mercaptoethanol, 5% glycerol, BSA, 1.58 uM 47 bp competitor DNA (nucleosome assays); absent w.

Residue numbers refer to the chain shown, from its start.

B1: N601 nucleosome core particle -61 meCpG (nucleosome)
DNA 1: CAGGATGTATATATCTGACACGTGCCTGGAGACTAGGGAGTAATCCCCTTGGCGGTTAAAACGCGGGGGACAGCGCGTACGTGCGTTTAAGCGGTGCTAGAGCTGTCTACGACCAATTGAGCGGCCTCGGCACCGGGATTCTCCA
DNA 2: TGGAGAATCCCGGTGCCGAGGCCGCTCAATTGGTCGTAGACAGCTCTAGCACCGCTTAAACGCACGTACGCGCTGTCCCCCGCGTTTTAACCGCCAAGGGGATTACTCCCTAGTCTCCAGGCACGTGTCAGATATATACATCCTG
modifications: meCpG at -61
As for B1, in data set [1], the binding result is on record as “no binding”.

B2: 15-N601-15 nucleosome -1 meCpG (nucleosome)
DNA 1: ATGGAACACATTGCACAGGATGTATATATCTGACACGTGCCTGGAGACTAGGGAGTAATCCCCTTGGCGGTTAAAACGCGGGGGACAGCGCGTACGTGCGTTTAAGCGGTGCTAGAGCTGTCTACGACCAATTGAGCGGCCTCGGCACCGGGATTCTCCAGGGCGGCCGCGTATT
DNA 2: AATACGCGGCCGCCCTGGAGAATCCCGGTGCCGAGGCCGCTCAATTGGTCGTAGACAGCTCTAGCACCGCTTAAACGCACGTACGCGCTGTCCCCCGCGTTTTAACCGCCAAGGGGATTACTCCCTAGTCTCCAGGCACGTGTCAGATATATACATCCTGTGCAATGTGTTCCAT
modifications: meCpG at -1
For orientation: Kd means the concentration at which binding is half-saturated. As to B2, the Kd in data set [2] stood at 522 nM; in data set [3], 812 nM; in data set [1], 130 nM; in data set [4], 71.3 nM. The binding result in data set [5] is listed as “no binding”.

B3: 15-N601-15 free DNA -1 meCpG (dsDNA)
DNA 1: B2 DNA 1
DNA 2: B2 DNA 2
modifications: meCpG at -1
Turning to B3, in data set [6] (label: 5' 6-FAM, blunt), the Kd was determined as 45.3 ± 2 nM.

B4: 15-N601-15 free DNA unmethylated (dsDNA)
DNA 1: B2 DNA 1
DNA 2: B2 DNA 2
In the case of B4, the Kd in data set [6] (label: 5' 6-FAM, blunt) is 75.9 ± 4.2 nM.

B5: 15-N601-15 free DNA -61 meCpG (dsDNA)
DNA 1: B2 DNA 1
DNA 2: B2 DNA 2
modifications: meCpG at -61
With B5, in data set [6] (label: 5' 6-FAM, blunt), the Kd amounted to 50.5 ± 1.9 nM.

B6: 16-N603-30 nucleosome 91 meCpA (nucleosome)
DNA 1: GAGCCACAAAATCACCGACGCTCACGGGTGCCCAGTTCGCGCGCCCACCTACCGTGTGAAGTCGTCACTCGGGCTTCTAAGTACGCTTAGCGCACGGTAGAGCGCAATCCAAGGCTAACCACCGTGCATCGATGTTGAAAGAGGCCCTCCGTCCTTATTACTTCAAGTCCCTGGGGTACCCGTTTCACTGCCA
DNA 2: TGGCAGTGAAACGGGTACCCCAGGGACTTGAAGTAATAAGGACGGAGGGCCTCTTTCAACATCGATGCACGGTGGTTAGCCTTGGATTGCGCTCTACCGTGCGCTAAGCGTACTTAGAAGCCCGAGTGACGACTTCACACGGTAGGTGGGCGCGCGAACTGGGCACCCGTGAGCGTCGGTGATTTTGTGGCTC
modifications: asymmetric meCpA at 91
Regarding B6, the Kd in data set [7] was 103 nM; in data set [2] it was 162 nM; in data set [3] it was 85.7 nM; in data set [1], 57.1 nM; in data set [4], 25.3 nM.

B7: 16-N603-30 free DNA unmethylated (dsDNA)
DNA 1: B6 DNA 1
DNA 2: B6 DNA 2
B7: the Kd in data set [6] (label: 5' 6-FAM) was 46.2 ± 2.8 nM.

B8: 16-N603-30 +81 CG nucleosome 81 meCpG (nucleosome)
DNA 1: B6 DNA 1 with T22C, A24G, C25G
DNA 2: B6 DNA 2 with G169C, T170C, A172G
modifications: meCpG at 81
B8 gave a Kd in data set [1] of 65.5 nM.

B9: 16-N603-30 nucleosome 81 meCpA (nucleosome)
DNA 1: B6 DNA 1
DNA 2: B6 DNA 2
modifications: asymmetric meCpA at 81
In the case of B9, the Kd in data set [3] stood at 268 nM; in data set [1], 65.3 nM; in data set [4], 42.2 nM.

B10: 16-N603-30 free DNA 91 meCpA (dsDNA)
DNA 1: B6 DNA 1
DNA 2: B6 DNA 2
modifications: asymmetric meCpA at 91
Take B10: the Kd in data set [6] (blunt) was 27.8 ± 1.9 nM.

B11: 16-N603-30 +81 CG free DNA 81 meCpG (dsDNA)
DNA 1: B6 DNA 1 with T22C, A24G, C25G
DNA 2: B6 DNA 2 with G169C, T170C, A172G
modifications: meCpG at 81
As for B11, the Kd in data set [6] (blunt) turned out to be 23.8 ± 1.2 nM.

B12: 16-N603-30 +91 CG nucleosome 91 meCpG (nucleosome)
DNA 1: B6 DNA 1 with T12C, A14G, C15G
DNA 2: B6 DNA 2 with G179C, T180C, A182G
modifications: meCpG at 91
As to B12, the Kd in data set [1] was 71.3 nM.

B13: 16-N603-30 free DNA 81 meCpA (dsDNA)
DNA 1: B6 DNA 1
DNA 2: B6 DNA 2
modifications: asymmetric meCpA at 81
Take B13: the Kd in data set [6] (label: 5' 6-FAM) was found to be 27.1 ± 1.8 nM.

B14: 16-N603-30 +91 CG free DNA 91 meCpG (dsDNA)
DNA 1: B6 DNA 1 with T12C, A14G, C15G
DNA 2: B6 DNA 2 with G179C, T180C, A182G
modifications: meCpG at 91
In the case of B14, in data set [6] (blunt), the Kd was found to be 24.6 ± 1.7 nM.

B15: N601-15 nucleosome 81 meCpA (nucleosome)
DNA 1: ATGGAACACATTGCACAGGATGTATATATCTGACACGTGCCTGGAGACTAGGGAGTAATCCCCTTGGCGGTTAAAACGCGGGGGACAGCGCGTACGTGCGTTTAAGCGGTGCTAGAGCTGTCTACGACCAATTGAGCGGCCTCGGCACCGGGATTCTCCA
DNA 2: TGGAGAATCCCGGTGCCGAGGCCGCTCAATTGGTCGTAGACAGCTCTAGCACCGCTTAAACGCACGTACGCGCTGTCCCCCGCGTTTTAACCGCCAAGGGGATTACTCCCTAGTCTCCAGGCACGTGTCAGATATATACATCCTGTGCAATGTGTTCCAT
modifications: asymmetric meCpA at 81
B15 gave a Kd in data set [1] of 357 nM.

B16: N601-15 nucleosome (single 15 bp linker) (nucleosome)
DNA 1: B15 DNA 1
DNA 2: B15 DNA 2
In the case of B16, the Kd in data set [1] was 419 nM.
